Assay results from patent publication US8399206B2, “Methods for diagnosis, prognosis and methods of treatment” (Nodality, Inc., priority 2008, dated 2013).

System: AML myeloblasts (BMMC)
Assay: SCNP of paired diagnosis and relapse AML BMMC and independent diagnostic set (Example 5)
Format: cell-based, human
Conditions: paired diagnosis samples of Patients 1 and 2
Excerpt: All AML bone marrow mononuclear cells (BMMC) were derived from the bone marrow (BM) of AML patients treated at MD Anderson Cancer Center (MDACC) between September 1999 and September 2006. Clinical data were de-identified in compliance with Health Insurance Portability and Accountability Act regulations. Patient/sample inclusion criteria required a diagnosis of French-American-British (FAB) classification of M0 through M7 AML (excluding M3) AML, collection prior to therapy initiation and at least 50% viability upon sample thaw. For the identification of chemoresistant signaling profiles, two longitudinally paired BMMC samples at diagnosis (collection prior to the initiation of induction chemotherapy) and first relapse, were examined. An independent test set comprised of 47 BMMC samples collected at diagnosis from AML patients with a disease response of CR after high dose cytarabine based chemotherapy was used to assess the ability of the identified signaling profiles to predict disease relapse. Healthy, unstimulated BMMC (n=2) were purchased from a commercial source (All Cells) to serve as a control. All samples underwent fractionation over Ficoll-Hypaque prior to cryopreservation with 90% fetal bovine serum and 10% dimethyl sulfoxide and storage in liquid nitrogen.
The SCNP assay measured response to growth factors and cytokines involved in hematopoietic progenitor or myeloid biology (SCF, FLT3L, G-CSF, IL-27), drug transporter (ABCG2, MRP-1) and chemokine receptors (CXCR4) associated with adverse disease prognosis in AML, and the c-Kit growth factor receptor for SCF. The SCF and FLT3L-mediated PI3K/Akt and MAPK pathway is important for maintaining the hematopoietic stem cell pool; G-CSF-mediated Jak/STAT pathway activation is important for neutrophilic differentiation of hematopoietic progenitor cells; interleukin (IL)-27 mediated Jak/STAT pathway activation is important in regulating proliferation and differentiation of hematopoietic stem cells; CXCR4 expression is associated with disease relapse and decreased survival; and drug transporter expression levels (i.e. ABCG2 and MRP-1) are known to be associated with adverse prognosis in AML. All together, approximately 20 signaling nodes were evaluated in each sample.
SCNP assays were performed as described previously. Cryopreserved samples were thawed at 37° C. and washed once in warm PBS containing 10% FBS (HyClone, Waltham, Mass., USA) and 2 mM EDTA. […] The cells were re-suspended in RPMI containing 1% FBS, aliquoted to 100,000 cells/condition and rested for 1-2 hours at 37° C. […]

| Molecule | responsive cells in diagnostic AML bone marrow samples | responsive subpopulation in diagnosis samples |
| --- | --- | --- |
| FLT-3L: fms-like tyrosine kinase receptor-3 ligand (protein, UniProt P49771 27-235, looked up) Fms-related tyrosine kinase 3 …: TQDCSFQHSPISSDFAVKIRELSDYLLQDYPVTVASNLQDEELCGGLWRLVLAQRWMERLKTVAGSKMQGLLERVNTEIHFVTKCAFQPPPSCLRFVQTNISRLLQETSEQLVALKPWITRQNFSRCLELQCQPDSSTLPPPWSPRPLEATAPTAPQPPLLLLLLLPVGLLLLAAAWCLHWQRTRRRTPRPGEQVPPVPSPQDLLLVEH | ~1% | – |
| IL-27: interleukin-27 (protein, UniProt Q8NEV9 29-243; Q14213 21-229, looked up) Interleukin-27 subunit alpha: FPRPPGRPQLSLQELRREFTVSLHLARKLLSEVRGQAHRFAESHLPGVNLYLLPLGEQLPDVSLTFQAWRRLSDPERLCFISTTLQPFHALLGGLGTQGRWTNMERMQLWAMRLDLRDLQRHLRFQVLAAGFNLPEEEEEEEEEEEEERKGLLPGALGSALQGPAQVSWPQLLSTYRLLHSLELVLSRAVRELLLLSKAGHSVWPLGFPTLSPQP Interleukin-27 subunit beta: RKGPPAALTLPRVQCRASRYPIAVDCSWTLPPAPNSTSPVSFIATYRLGMAARGHSWPCLQQTPTSTSCTITDVQLFSMAPYVLNVTAVHPWGSSSSFVPFITEHIIKPDPPEGVRLSPLAERQLQVQWEPPGSWPFPEIFSLKYWIRYKRQGAARFHRVGPIEATSFILRAVRPRARYYVQVAAQDLTDYGELSDWSLPATATMSLGK | – | no IL-27 responsive subpopulation was identified |
